The results in this text go back to US20210188986A1.

Assay [1] addresses human TNFα (recombinant, soluble) (human) (UniProt P01375). Put plainly: cell-based or functional assay.
The target in assay [2] is human OX40L (recombinant, soluble) (human) (UniProt P23510). The assay is described as follows: cell-based or functional assay.
Chain of UniProt P23510 (P23510 51-183 limits assumed): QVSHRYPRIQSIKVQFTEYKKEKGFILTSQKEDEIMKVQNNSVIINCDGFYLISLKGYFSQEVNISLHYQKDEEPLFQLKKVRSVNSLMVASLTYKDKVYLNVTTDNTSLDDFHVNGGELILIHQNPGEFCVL

Chain of UniProt P01375 (P01375 77-233 limits assumed): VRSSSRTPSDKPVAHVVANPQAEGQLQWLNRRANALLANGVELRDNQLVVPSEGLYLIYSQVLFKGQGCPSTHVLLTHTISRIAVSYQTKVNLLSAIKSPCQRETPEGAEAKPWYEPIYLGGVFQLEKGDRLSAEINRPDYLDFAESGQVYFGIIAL

Consider monospecific anti-TNFα VHH ATN-103, for which, in assay [1], the % inhibition, Jurkat OX40/TNF-NFκB reporter assay, combined hTNFα+OX40L stimulus came to 66% and the IC50 (pM), Jurkat OX40/TNF-NFκB reporter assay, combined hTNFα+OX40L stimulus was determined as 387 pM.
On to monospecific anti-OX40L VHH ALX-0632, for which, in assay [2], the % inhibition, Jurkat OX40/TNF-NFκB reporter assay, combined hTNFα+OX40L stimulus turned out to be 68% and the IC50 (pM), Jurkat OX40/TNF-NFκB reporter assay, combined hTNFα+OX40L stimulus came out at 3060 pM.
